{"source": "patent US20140087995A1", "about": "(published 2014)", "binders": {"B1": {"name": "N^α1-[2-[2-[2-[[2-[2-[2-[[(4S)-4-carboxy-4-(19-carboxynonadecanoylamino)butanoyl]amino]ethoxy]ethoxy]acetyl]amino]ethoxy]ethoxy]acetyl]-[Glu14,Arg17,Pro21,Pro27 … (peptide)", "peptide": "{C20 diacid-γGlu-AEEA-AEEA}-KCNTATCATQRLAEFLRHSSPNFGAIPSSTNVGSNTP-NH2", "modifications": "disulfide 2-7", "SMILES": "CC[C@H](C)[C@H](NC(=O)[C@H](C)NC(=O)CNC(=O)[C@H](Cc1ccccc1)NC(=O)[C@H](CC(N)=O)NC(=O)[C@@H]1CCCN1C(=O)[C@H](CO)NC(=O)[C@H](CO)NC(=O)[C@H](Cc1c[nH]cn1)NC(=O)[C@H](CCCNC(=N)N)NC(=O)[C@H](CC(C)C)NC(=O)[C@H](Cc1ccccc1)NC(=O)[C@H](CCC(=O)O)NC(=O)[C@H](C)NC(=O)[C@H](CC(C)C)NC(=O)[C@H](CCCNC(=N)N)NC(=O)[C@H](CCC(N)=O)NC(=O)[C@@H](NC(=O)[C@H](C)NC(=O)[C@@H]1CSSC[C@H](NC(=O)[C@H](CCCCN)NC(=O)COCCOCCNC(=O)COCCOCCNC(=O)CC[C@H](NC(=O)CCCCCCCCCCCCCCCCCCC(=O)O)C(=O)O)C(=O)N[C@@H](CC(N)=O)C(=O)N[C@@H]([C@@H](C)O)C(=O)N[C@@H](C)C(=O)N[C@@H]([C@@H](C)O)C(=O)N1)[C@@H](C)O)C(=O)N1CCC[C@H]1C(=O)N[C@@H](CO)C(=O)N[C@@H](CO)C(=O)N[C@H](C(=O)N[C@@H](CC(N)=O)C(=O)N[C@H](C(=O)NCC(=O)N[C@@H](CO)C(=O)N[C@@H](CC(N)=O)C(=O)N[C@H](C(=O)N1CCC[C@H]1C(N)=O)[C@@H](C)O)C(C)C)[C@@H](C)O", "notes": "also called compound 20"}, "B2": {"name": "N^-1-[(4S)-4-carboxy-4-(19-carboxynonadecanoylamino)butanoyl]-Gly[Arg1,Ala14,Arg17,Pro21,Pro27,His34]-h-amylin (peptide)", "peptide": "{C20 diacid-γGlu}-GRCNTATCATQRLAAFLRHSSPNFGAIPSSTNVGHNTY-NH2", "modifications": "disulfide 3-8", "SMILES": "CC[C@H](C)[C@H](NC(=O)[C@H](C)NC(=O)CNC(=O)[C@H](Cc1ccccc1)NC(=O)[C@H](CC(N)=O)NC(=O)[C@@H]1CCCN1C(=O)[C@H](CO)NC(=O)[C@H](CO)NC(=O)[C@H](Cc1c[nH]cn1)NC(=O)[C@H](CCCNC(=N)N)NC(=O)[C@H](CC(C)C)NC(=O)[C@H](Cc1ccccc1)NC(=O)[C@H](C)NC(=O)[C@H](C)NC(=O)[C@H](CC(C)C)NC(=O)[C@H](CCCNC(=N)N)NC(=O)[C@H](CCC(N)=O)NC(=O)[C@@H](NC(=O)[C@H](C)NC(=O)[C@@H]1CSSC[C@H](NC(=O)[C@H](CCCNC(=N)N)NC(=O)CNC(=O)CC[C@H](NC(=O)CCCCCCCCCCCCCCCCCCC(=O)O)C(=O)O)C(=O)N[C@@H](CC(N)=O)C(=O)N[C@@H]([C@@H](C)O)C(=O)N[C@@H](C)C(=O)N[C@@H]([C@@H](C)O)C(=O)N1)[C@@H](C)O)C(=O)N1CCC[C@H]1C(=O)N[C@@H](CO)C(=O)N[C@@H](CO)C(=O)N[C@H](C(=O)N[C@@H](CC(N)=O)C(=O)N[C@H](C(=O)NCC(=O)N[C@@H](Cc1c[nH]cn1)C(=O)N[C@@H](CC(N)=O)C(=O)N[C@H](C(=O)N[C@@H](Cc1ccc(O)cc1)C(N)=O)[C@@H](C)O)C(C)C)[C@@H](C)O"}, "B3": {"name": "N^-1-[(4S)-4-carboxy-4-(19-carboxynonadecanoylamino)butanoyl]-Gly[Arg1,His14,Arg17,Pro21,Pro27,Pro34]-h-amylin (peptide)", "peptide": "{C20 diacid-γGlu}-GRCNTATCATQRLAHFLRHSSPNFGAIPSSTNVGPNTY-NH2", "modifications": "disulfide 3-8", "SMILES": "CC[C@H](C)[C@H](NC(=O)[C@H](C)NC(=O)CNC(=O)[C@H](Cc1ccccc1)NC(=O)[C@H](CC(N)=O)NC(=O)[C@@H]1CCCN1C(=O)[C@H](CO)NC(=O)[C@H](CO)NC(=O)[C@H](Cc1c[nH]cn1)NC(=O)[C@H](CCCNC(=N)N)NC(=O)[C@H](CC(C)C)NC(=O)[C@H](Cc1ccccc1)NC(=O)[C@H](Cc1c[nH]cn1)NC(=O)[C@H](C)NC(=O)[C@H](CC(C)C)NC(=O)[C@H](CCCNC(=N)N)NC(=O)[C@H](CCC(N)=O)NC(=O)[C@@H](NC(=O)[C@H](C)NC(=O)[C@@H]1CSSC[C@H](NC(=O)[C@H](CCCNC(=N)N)NC(=O)CNC(=O)CC[C@H](NC(=O)CCCCCCCCCCCCCCCCCCC(=O)O)C(=O)O)C(=O)N[C@@H](CC(N)=O)C(=O)N[C@@H]([C@@H](C)O)C(=O)N[C@@H](C)C(=O)N[C@@H]([C@@H](C)O)C(=O)N1)[C@@H](C)O)C(=O)N1CCC[C@H]1C(=O)N[C@@H](CO)C(=O)N[C@@H](CO)C(=O)N[C@H](C(=O)N[C@@H](CC(N)=O)C(=O)N[C@H](C(=O)NCC(=O)N1CCC[C@H]1C(=O)N[C@@H](CC(N)=O)C(=O)N[C@H](C(=O)N[C@@H](Cc1ccc(O)cc1)C(N)=O)[C@@H](C)O)C(C)C)[C@@H](C)O"}}, "note": "Numbered stars: 1 amine (or outer) side, 2 acyl side, 3 side chain; on linkers, the order of the positions; unused ones are H or OH. Bridge positions count the residues as written; N and C are the ends. Square brackets hold non-standard residues; d marks the D form. Side chains are listed from the residue outwards. Ends that are not written are not given here. * marks the point of attachment. C20 diacid = O=C(O)CCCCCCCCCCCCCCCCCCC(=O)*; C18 diacid = O=C(O)CCCCCCCCCCCCCCCCC(=O)*; C16 diacid = O=C(O)CCCCCCCCCCCCCCC(=O)*; γGlu = O=C(O)[C@H](CCC(=O)[*:2])N[*:1]; C14 diacid = O=C(O)CCCCCCCCCCCCC(=O)*; AEEA = NCCOCCOCC(=O)O", "data": [{"biological_target": "T1, human amylin 3(a) receptor (human calcitonin receptor + RAMP-3) (human, UniProt P30988 25-474; O60896 24-148, limits assumed)", "T1 sequence (looked up) 1": "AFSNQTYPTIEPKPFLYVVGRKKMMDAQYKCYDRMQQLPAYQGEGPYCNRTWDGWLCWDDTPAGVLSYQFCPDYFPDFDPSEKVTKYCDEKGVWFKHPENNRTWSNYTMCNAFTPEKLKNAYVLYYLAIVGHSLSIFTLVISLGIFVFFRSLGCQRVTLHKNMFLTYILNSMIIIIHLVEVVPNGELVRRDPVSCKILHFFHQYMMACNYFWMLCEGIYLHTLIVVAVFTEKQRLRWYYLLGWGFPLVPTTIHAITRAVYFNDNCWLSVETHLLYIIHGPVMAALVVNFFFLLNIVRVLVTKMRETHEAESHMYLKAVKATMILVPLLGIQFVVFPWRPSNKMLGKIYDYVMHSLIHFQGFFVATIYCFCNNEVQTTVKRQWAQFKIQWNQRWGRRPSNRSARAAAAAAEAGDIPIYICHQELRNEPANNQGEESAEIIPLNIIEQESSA", "T1 sequence (looked up) 2": "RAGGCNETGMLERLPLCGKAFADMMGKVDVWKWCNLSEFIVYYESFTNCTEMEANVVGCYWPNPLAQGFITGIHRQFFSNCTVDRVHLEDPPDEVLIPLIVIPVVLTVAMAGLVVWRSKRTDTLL", "test": "cell-based or functional assay", "units": {"hAmylin-R funct. EC50 (pM)": "pM"}, "values": [{"binder": "B1", "hAmylin-R funct. EC50 (pM)": 80}, {"binder": "{C20 diacid-γGlu}-GRCNTATCATQRLAAFLRHSSPNFGAIPSSTNVGPNTY-NH2 (disulfide 3-8)", "hAmylin-R funct. EC50 (pM)": 70}, {"binder": "B2", "hAmylin-R funct. EC50 (pM)": 109}, {"binder": "B3", "hAmylin-R funct. EC50 (pM)": 62}]}, {"biological_target": "T2, human calcitonin receptor (human, UniProt P30988 25-474)", "T2 sequence (looked up)": "T1 sequence (looked up) 1", "test": "cell-based or functional assay", "values": [{"binder": "B1", "Ratio hCT/hAmylin funct.": 3.6}, {"binder": "{C20 diacid-γGlu}-GRCNTATCATQRLAAFLRHSSPNFGAIPSSTNVGPNTY-NH2 (disulfide 3-8)", "Ratio hCT/hAmylin funct.": 2.1}, {"binder": "B2", "Ratio hCT/hAmylin funct.": 4.9}, {"binder": "B3", "Ratio hCT/hAmylin funct.": 2.9}]}, {"biological_target": "T3, human calcitonin receptor (human, UniProt P30988 25-474)", "T3 sequence (looked up)": "T1 sequence (looked up) 1", "test": "cell-based or functional assay", "units": {"hCTR funct. EC50 (pM)": "pM"}, "values": [{"binder": "K([γGlu-γGlu-C20 diacid])CNTATCATQRLAEFLRHSSPNFGAIPSSTNVGPETY-NH2 (disulfide 2-7 (inferred), Synthetic)", "hCTR funct. EC50 (pM)": 2360}, {"binder": "K([γGlu-C14 diacid])CNTATCATQRLANFLRHSSPNFGAIPSSTNVGHNTY-NH2 (disulfide 2-7 (inferred), Synthetic)", "note": "[N^ε1-[(4S)-4-carboxy-4-(13-carboxytridecanoylamino)butanoyl]-[Arg17,Pro21,Pro27,His34]-h-amylin]", "hCTR funct. EC50 (pM)": 1090}, {"binder": "K([γGlu-C16 diacid])CNTATCATQRLANFLRHSSPNFGAIPSSTNVGHNTY-NH2 (disulfide 2-7 (inferred), Synthetic)", "note": "[N^ε1-[(4S)-4-carboxy-4-(15-carboxypentadecanoylamino)butanoyl]-[Arg17,Pro21,Pro27,His34]-h-amylin]", "hCTR funct. EC50 (pM)": 2210}, {"binder": "K([γGlu-C18 diacid])CNTATCATQRLANFLRHSSPNFGAIPSSTNVGHNTY-NH2 (disulfide 2-7 (inferred), Synthetic)", "note": "[N^ε1-[(4S)-4-carboxy-4-(17-carboxyheptadecanoylamino)butanoyl]-[Arg17,Pro21,Pro27,His34]-h-amylin]", "hCTR funct. EC50 (pM)": 5850}, {"binder": "K([γGlu-C20 diacid])CNTATCATQRLADFLRHSSPNFGAIPSSTNVGPRTY-NH2 (disulfide 2-7 (inferred), Synthetic)", "hCTR funct. EC50 (pM)": 3640}, {"binder": "K([γGlu-C20 diacid])CNTATCATQRLAEFLRHSSPNFGAIPSSTNVGRETY-NH2 (disulfide 2-7 (inferred), Synthetic)", "hCTR funct. EC50 (pM)": 2740}, {"binder": "K([γGlu-C20 diacid])CNTATCATQRLAEFLRHSSPNFGAIPSSTNVGHETY-NH2 (disulfide 2-7 (inferred), Synthetic; also called compound 107)", "hCTR funct. EC50 (pM)": 2540}, {"binder": "K([γGlu-C20 diacid])CNTATCATQRLAEFLRHSSPNFGAIPSSTNVGSHTY-NH2 (disulfide 2-7 (inferred), Synthetic)", "hCTR funct. EC50 (pM)": 5580}, {"binder": "K([γGlu-C20 diacid])CNTATCATQRLAEFLRHSSPNFGAIPSSTNVGPRTY-NH2 (disulfide 2-7 (inferred), Synthetic)", "hCTR funct. EC50 (pM)": 6380}, {"binder": "K([γGlu-C20 diacid])CNTATCATQRLAEFLRHSSPNFGAIPSSTNVGPHTY-NH2 (disulfide 2-7 (inferred), Synthetic)", "hCTR funct. EC50 (pM)": 1450}, {"binder": "K([γGlu-γGlu-C20 diacid])CNTATCATQRLANFLRHSSPNFGAIPSSTPVGPRTY-NH2 (disulfide 2-7 (inferred), Synthetic)", "hCTR funct. EC50 (pM)": 8660}, {"binder": "K([γGlu-γGlu-C20 diacid])CNTATCATQRLADFLRHSSPNFGAIPSSTNVGPRTY-NH2 (disulfide 2-7 (inferred), Synthetic; also called compound 130)", "hCTR funct. EC50 (pM)": 7280}, {"binder": "K([γGlu-γGlu-C20 diacid])CNTATCATQRLADFLRHSSPNFGAIPSSTNVGPETY-NH2 (disulfide 2-7 (inferred), Synthetic)", "hCTR funct. EC50 (pM)": 843}, {"binder": "K([γGlu-γGlu-C20 diacid])CNTATCATQRLA[dD]FLRHSSPNFGAIPSSTNVGSRTY-NH2 (disulfide 2-7 (inferred), Synthetic)", "hCTR funct. EC50 (pM)": 100000}, {"binder": "K([γGlu-γGlu-C20 diacid])CNTATCATQRLAEFLRHSSPNFGAIPSSTNVGRETY-NH2 (disulfide 2-7 (inferred), Synthetic)", "hCTR funct. EC50 (pM)": 7430}, {"binder": "K([γGlu-γGlu-C20 diacid])CNTATCATQRLAEFLRHSSPNFGAIPSSTNVGHETY-NH2 (disulfide 2-7 (inferred), Synthetic)", "hCTR funct. EC50 (pM)": 7050}, {"binder": "K([γGlu-γGlu-C20 diacid])CNTATCATQRLAEFLRHSSPNFGAIPSSTNVGPRTY-NH2 (disulfide 2-7 (inferred), Synthetic; also called compound 110)", "hCTR funct. EC50 (pM)": 8160}, {"binder": "K([γGlu-γGlu-C20 diacid])CNTATCATQRLAEFLRHSSPNFGAIPSSTNVGPHTY-NH2 (disulfide 2-7 (inferred), Synthetic)", "hCTR funct. EC50 (pM)": 2830}]}]}
